In PMC9482650, “Quantitative fragmentomics allow affinity mapping of interactomes” (Nature Communications, 2022) one finds pKd data, which are given here for four molecules.

Holding throughout (test): holdup assay
Holding throughout (set-up): key: below the threshold = too weak to quantify, mostly under pKd 3.1 to 4

Assay [1] has as its target AHNAK1, Q09666.
The target of assay [2] is T1, APBA1_1, Q02410.
T1 sequence (Q02410 651-752, limits assumed, looked up): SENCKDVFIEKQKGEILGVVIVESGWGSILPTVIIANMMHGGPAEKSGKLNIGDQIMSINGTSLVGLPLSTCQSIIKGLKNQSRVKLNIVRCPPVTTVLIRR

The target of assay [3] is T2, CARD11, Q9BXL7.
T2 sequence (Q9BXL7 662-765, limits assumed, looked up): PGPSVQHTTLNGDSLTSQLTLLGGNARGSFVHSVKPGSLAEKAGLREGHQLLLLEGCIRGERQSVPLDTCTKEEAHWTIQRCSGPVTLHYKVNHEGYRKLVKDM

For assay [4], the target named is T3, DFNB31_2, Q9P202.
T3 sequence (Q9P202 274-371, limits assumed, looked up): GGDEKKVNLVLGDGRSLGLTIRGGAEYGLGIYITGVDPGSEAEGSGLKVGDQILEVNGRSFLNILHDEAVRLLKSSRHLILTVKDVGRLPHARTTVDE

Assay [5] has as its target DLG2_3, Q15700.
The target in assay [6] is GORASP2, Q9H8Y8.
Assay [7] has as its target T4, GRIP1_2, Q9Y3R0.
T4 sequence (Q9Y3R0 145-248, limits assumed, looked up): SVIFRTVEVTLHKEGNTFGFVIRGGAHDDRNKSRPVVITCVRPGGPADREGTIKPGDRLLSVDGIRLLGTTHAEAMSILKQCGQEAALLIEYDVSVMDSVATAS

Assay [8] addresses T5, GRIP1_3, Q9Y3R0.
T5 sequence (Q9Y3R0 247-346, limits assumed, looked up): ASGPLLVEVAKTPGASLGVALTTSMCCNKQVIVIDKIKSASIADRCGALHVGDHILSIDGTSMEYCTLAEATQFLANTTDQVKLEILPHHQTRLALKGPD

For assay [9], the target named is T6, GRIP1_5, Q9Y3R0.
T6 sequence (Q9Y3R0 568-668, limits assumed, looked up): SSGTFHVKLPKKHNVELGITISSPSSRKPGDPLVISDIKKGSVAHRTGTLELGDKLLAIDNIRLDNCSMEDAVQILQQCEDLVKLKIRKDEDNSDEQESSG

In assay [10] the target is GRIP2_3, Q9C0E4.
Sequence of GRIP2_3, Q9C0E4 (Q9C0E4 238-339): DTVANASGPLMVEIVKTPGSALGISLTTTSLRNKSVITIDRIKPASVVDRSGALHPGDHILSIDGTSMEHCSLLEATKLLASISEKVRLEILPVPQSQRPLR
Assay [11] addresses GRIP2_5, Q9C0E4.
In assay [12] the target is HTRA2, O43464.
Sequence of HTRA2, O43464 (O43464 355-458): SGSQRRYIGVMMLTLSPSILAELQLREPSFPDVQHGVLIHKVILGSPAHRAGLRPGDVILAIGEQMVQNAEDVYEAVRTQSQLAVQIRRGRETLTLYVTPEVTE
The target of assay [13] is Inadl_4, Q8NI35.
Sequence of Inadl_4, Q8NI35 (Q8NI35 547-651): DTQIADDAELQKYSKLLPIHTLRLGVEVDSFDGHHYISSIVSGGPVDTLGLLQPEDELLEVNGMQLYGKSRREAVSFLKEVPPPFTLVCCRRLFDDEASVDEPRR
The target in assay [14] is T7, LNX2_2, Q8N448.
T7 sequence (Q8N448 334-432, limits assumed, looked up): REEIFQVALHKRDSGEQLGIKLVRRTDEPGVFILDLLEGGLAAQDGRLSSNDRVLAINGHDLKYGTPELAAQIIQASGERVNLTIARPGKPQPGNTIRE

In assay [15] the target is T8, MPDZ_10, O75970.
T8 sequence (O75970 1624-1722, limits assumed, looked up): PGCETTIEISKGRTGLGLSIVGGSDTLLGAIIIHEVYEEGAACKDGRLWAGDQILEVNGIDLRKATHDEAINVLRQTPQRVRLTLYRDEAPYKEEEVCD

For assay [16], the target named is T9, MPP6, Q9NZW5.
T9 sequence (Q9NZW5 125-219, limits assumed, looked up): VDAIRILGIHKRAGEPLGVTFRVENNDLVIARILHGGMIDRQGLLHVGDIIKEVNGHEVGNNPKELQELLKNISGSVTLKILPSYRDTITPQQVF

Assay [17] deals with T10, PTPN13_1, Q12923.
T10 sequence (Q12923 1088-1188, limits assumed, looked up): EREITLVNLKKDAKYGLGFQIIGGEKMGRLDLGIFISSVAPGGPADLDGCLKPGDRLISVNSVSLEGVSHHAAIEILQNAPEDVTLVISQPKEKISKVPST

The target in assay [18] is T11, SIPA1L2, Q9P2F8.
T11 sequence (Q9P2F8 945-1036, limits assumed, looked up): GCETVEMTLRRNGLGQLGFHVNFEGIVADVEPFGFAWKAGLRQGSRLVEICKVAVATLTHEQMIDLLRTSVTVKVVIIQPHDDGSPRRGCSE

In assay [19] the target is T12, SNTA1, Q13424.
T12 sequence (Q13424 82-180, limits assumed, looked up): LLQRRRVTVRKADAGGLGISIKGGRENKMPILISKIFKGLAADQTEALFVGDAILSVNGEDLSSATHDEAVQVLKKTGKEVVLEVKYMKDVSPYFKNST

In assay [20] the target is TJP1_2, Q07157.
Sequence of TJP1_2, Q07157 (Q07157 181-274): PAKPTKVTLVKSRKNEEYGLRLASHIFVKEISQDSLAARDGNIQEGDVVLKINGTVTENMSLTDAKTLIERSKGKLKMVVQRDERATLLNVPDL
The target in assay [21] is T13, TJP3_3, O95049.
T13 sequence (O95049 375-456, limits assumed, looked up): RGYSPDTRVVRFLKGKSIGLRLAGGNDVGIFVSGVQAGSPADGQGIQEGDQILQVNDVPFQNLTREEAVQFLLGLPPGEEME

Assay [22] deals with T14, TX1BP3, O14907.
T14 sequence (O14907 10-122, limits assumed, looked up): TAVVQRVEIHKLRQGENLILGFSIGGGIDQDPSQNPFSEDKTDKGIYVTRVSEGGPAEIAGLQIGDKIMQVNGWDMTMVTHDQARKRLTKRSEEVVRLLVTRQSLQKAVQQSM

The mark [23] stands for this setting: plain residues with an end cap or a label only (N-terminal biotin on a linker: ttds).
Setting [24] is: plain residues with an end cap or a label only (N-terminal biotin on a linker: gsgsgs; C-terminal amide).

Sequence of GRIP2_5, Q9C0E4 (Q9C0E4 544-642): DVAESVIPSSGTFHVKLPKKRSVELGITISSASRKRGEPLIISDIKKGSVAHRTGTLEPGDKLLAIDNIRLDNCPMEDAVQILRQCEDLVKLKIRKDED
Sequence of AHNAK1, Q09666 (Q09666 4-100): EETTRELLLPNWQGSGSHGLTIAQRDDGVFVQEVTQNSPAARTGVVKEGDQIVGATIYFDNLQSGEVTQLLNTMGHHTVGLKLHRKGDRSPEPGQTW

The term pKd denotes the negative decadic logarithm of the Kd, by convention in mol/L. Turning to FHPLGADSQV [SLC2A1, P11166], the pKd entry in assay [1] (setting [23]), in assay [2] (setting [23]), in [3] (setting [23]), in assay [4] (setting [23]), in assay [5] (setting [23]) and in assay [6] (setting [23]) was “below the threshold” in each case. Also, the pKd entry in assay [7] (setting [23]), in assay [8] (setting [23]), in assay [9] (setting [23]), in [10] (setting [23]), in assay [11] (setting [23]) and in assay [12] (setting [23]) was “below the threshold” in each case. Besides, the pKd entry in assay [13] (setting [23]), in assay [14] (setting [23]), in assay [15] (setting [23]), in assay [16] (setting [23]), in [17] (setting [23]) and in [18] (setting [23]) was “below the threshold” in each case. Besides, the negative logarithm of the Kd (pKd) entry in assay [19] (setting [23]) was “below the threshold”; in assay [20] (setting [23]) it was “below the threshold”; in assay [21] (setting [23]) it was “below the threshold”; in assay [22] (setting [23]), 3.77.
As to VDFPPKESSL [ACVR2A, P27037], the pKd result in assay [1] (setting [23]) is “below the threshold”; in assay [2] (setting [23]), “below the threshold”; in assay [3] (setting [23]), “below the threshold”; in assay [4] (setting [23]) it was 3.46; in assay [5] (setting [23]), 3.75; in [6] (setting [23]), 3.87. For the same molecule, the pKd entry in [7] (setting [23]), in [8] (setting [23]), in assay [9] (setting [23]), in assay [10] (setting [23]), in [11] (setting [23]) and in assay [12] (setting [23]) was “below the threshold” in each case. Besides, the pKd entry in assay [13] (setting [23]), in assay [14] (setting [23]), in assay [15] (setting [23]), in [16] (setting [23]), in assay [17] (setting [23]) and in [18] (setting [23]) was “below the threshold” throughout. In addition, the pKd in assay [19] (setting [23]) is 4.28; in assay [20] (setting [23]) it was “below the threshold”; in [21] (setting [23]) it was “below the threshold”; in assay [22] (setting [23]), 4.13.
Take RPLPRKVSQL [DOCK4, Q8N1I0]: the pKd result in [1] (setting [23]) is “below the threshold”; in assay [2] (setting [23]), “below the threshold”; in assay [3] (setting [23]), “below the threshold”; in assay [4] (setting [23]), “below the threshold”; in [5] (setting [23]) it was 4.17; in assay [6] (setting [23]), 4.85. Also, the negative logarithm of the Kd (pKd) result in [7] (setting [23]), in assay [8] (setting [23]), in assay [9] (setting [23]), in [10] (setting [23]), in [11] (setting [23]) and in assay [12] (setting [23]) was “below the threshold” throughout. For the same molecule, the pKd entry in assay [13] (setting [23]), in assay [14] (setting [23]), in assay [15] (setting [23]), in assay [16] (setting [23]), in assay [17] (setting [23]) and in assay [18] (setting [23]) was “below the threshold” throughout. The pKd entry in assay [19] (setting [23]) is “below the threshold”; in assay [20] (setting [23]), “below the threshold”; in [21] (setting [23]), “below the threshold”; in assay [22] (setting [23]), 4.41.
For the molecule YGIVQETTFDLGGDIH [MLLT4_int, P55196], the pKd entry in assay [1] (setting [24]) is “below the threshold”; in assay [2] (setting [24]), “below the threshold”; in assay [3] (setting [24]), “below the threshold”; in assay [4] (setting [24]), “below the threshold”; in assay [5] (setting [24]), 3.77; in [6] (setting [24]), “below the threshold”. Further, the pKd entry in assay [7] (setting [24]), in [8] (setting [24]), in assay [9] (setting [24]), in [10] (setting [24]), in assay [11] (setting [24]) and in assay [12] (setting [24]) was “below the threshold” in each case. For the same molecule, the pKd result in assay [13] (setting [24]), in assay [14] (setting [24]), in [15] (setting [24]), in assay [16] (setting [24]), in [17] (setting [24]) and in [18] (setting [24]) was “below the threshold” throughout. For the same molecule, the pKd entry was “below the threshold” in assay [19] (setting [24]), “below the threshold” in assay [20] (setting [24]), “below the threshold” in [21] (setting [24]) and 3.83 in assay [22] (setting [24]).
